Test results from PMC7082571, “Two New Unspecific Peroxygenases from Heterologous Expression of Fungal Genes in Escherichia coli” (Applied and Environmental Microbiology, 2020).
Substitutions are numbered along the chain they refer to. Each block holds one molecule with its values, some of them ahead of it.

How the values were obtained:
[1] = molecular target: T1, rDcaUPO (D. caldariorum UPO) (Daldinia caldariorum, UniProt A0AAN0NP18); assay: benzaldehyde formation at […] nm, substrate inhibition model; format: biochemical; conditions: 1 mM H2O2, 0.1 M Tris, optimal pH (Fig. S6), 25°C
T1 construct: codon-optimised gene in pET28, poly-His tag (thrombin-cleavable, no effect on activity), soluble in E. coli C41; 29,609 Da calculated, 55 kDa by SEC (most probably dimer)

[2] = molecular target: T2, rCviUPO (C. virescens UPO) (Achaetomiella virescens, UniProt Z9FBJ6W4Y2, F87L, form not given); assay: benzaldehyde formation at […] nm; format: biochemical; conditions: 1 mM H2O2, 0.1 M Tris, optimal pH (Fig. S10), 25°C
T2 construct: codon-optimised gene in pET23a, untagged, soluble in E. coli C41; 29,616 Da calculated, 52 kDa by SEC (most probably dimer); heme-thiolate
T2 sequence (Z9FBJ6W4Y2 1-226 F87L): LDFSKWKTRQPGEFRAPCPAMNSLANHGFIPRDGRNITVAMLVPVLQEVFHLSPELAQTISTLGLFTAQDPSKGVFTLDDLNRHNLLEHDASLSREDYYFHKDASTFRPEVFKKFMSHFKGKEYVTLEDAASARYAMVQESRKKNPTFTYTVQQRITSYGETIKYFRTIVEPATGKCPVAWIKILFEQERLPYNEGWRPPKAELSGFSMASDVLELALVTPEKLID

[3] = molecular target: T3, rCviUPO (C. virescens UPO) (Achaetomiella virescens, UniProt Z9FBJ6W4Y2, T157F, form not given); assay: benzaldehyde formation at […] nm; format: biochemical; conditions: 1 mM H2O2, 0.1 M Tris, optimal pH (Fig. S10), 25°C
T3 construct: codon-optimised gene in pET23a, untagged, soluble in E. coli C41; 29,616 Da calculated, 52 kDa by SEC (most probably dimer); heme-thiolate
T3 sequence (Z9FBJ6W4Y2 1-226 T157F): T2 sequence (Z9FBJ6W4Y2 1-226 F87L) with L87F, T157F

[4] = molecular target: T4, rCviUPO (C. virescens UPO) (Achaetomiella virescens, UniProt Z9FBJ6W4Y2); assay: benzaldehyde formation at […] nm, Hill fit; format: biochemical; conditions: 1 mM H2O2, 0.1 M Tris, optimal pH (Fig. S6), 25°C; sigmoidal, nH 1.6 ± 0.2
T4 construct: codon-optimised gene in pET23a, untagged, soluble in E. coli C41; 29,616 Da calculated, 52 kDa by SEC (most probably dimer); heme-thiolate
T4 sequence (Z9FBJ6W4Y2 1-226): T2 sequence (Z9FBJ6W4Y2 1-226 F87L) with L87F

[5] = molecular target: recombinant Daldinia caldariorum unspecific peroxygenase (Daldinia caldariorum); assay: SEC; Sepharose 12 10/300 column, 10 mM Tris (pH 7.4) with 0.15 M NaCl, calibrated with ferritin, aldolase, bovine serum albumin, ovalbumin, carbonic anhydrase and aprotinin; native mass compared with SDS-PAGE under reducing conditions
[6] = molecular target: T2, rCviUPO (C. virescens UPO); assay: veratraldehyde formation at […] nm; format: biochemical; conditions: 1 mM H2O2, 0.1 M acetate, optimal pH (Fig. S10), 25°C
[7] = molecular target: T1, rDcaUPO (D. caldariorum UPO); assay: veratraldehyde formation at […] nm, substrate inhibition model; format: biochemical; conditions: 1 mM H2O2, 0.1 M acetate, optimal pH (Fig. S6), 25°C
[8] = molecular target: T3, rCviUPO (C. virescens UPO); assay: veratraldehyde formation at […] nm; format: biochemical; conditions: 1 mM H2O2, 0.1 M acetate, optimal pH (Fig. S10), 25°C
[9] = molecular target: T4, rCviUPO (C. virescens UPO); assay: veratraldehyde formation at […] nm; format: biochemical; conditions: 1 mM H2O2, 0.1 M acetate, optimal pH (Fig. S6), 25°C
[10] = molecular target: the molecule itself; assay: SEC; Sepharose 12 10/300 column, 10 mM Tris (pH 7.4) with 0.15 M NaCl, calibrated with ferritin, aldolase, bovine serum albumin, ovalbumin, carbonic anhydrase and aprotinin; native mass compared with SDS-PAGE under reducing conditions
purified protein [11] = substrate: c1ccc2ccccc2c1; assay: purified protein; format: biochemical, Daldinia caldariorum; conditions: 1 mM H2O2, 0.1 M tartrate with 5% ethanol, optimal pH (Fig. S6), 25°C, Methods say Hill fit, Results say Michaelis-Menten
purified protein [12] = substrate: OCc1ccccc1; assay: purified protein; format: biochemical, Daldinia caldariorum; conditions: 1 mM H2O2, 0.1 M Tris, optimal pH (Fig. S6), 25°C
purified protein [13] = substrate: COc1ccc(CO)cc1OC; assay: purified protein; format: biochemical, Daldinia caldariorum; conditions: 1 mM H2O2, 0.1 M acetate, optimal pH (Fig. S6), 25°C
purified protein [14] = substrate: CCn1c(=NN=c2sc3cc(S(=O)(=O)O)ccc3n2CC)sc2cc(S(=O)(=O)O)ccc21; assay: purified protein; format: biochemical, Daldinia caldariorum; conditions: 1 mM H2O2, 0.1 M acetate, optimal pH (Fig. S6), 25°C

Molecule: OCc1ccccc1 [benzyl alcohol]
- Ki (μM) [1]: 9,280 ± 2,270 μM
- Km [2]: 623 ± 111 µM
- Km [3]: 1870 µM
- Km [4]: 7100 µM

- stoichiometry N [5]: 2
Molecule: recombinant Daldinia caldariorum unspecific peroxygenase (enzyme)

Molecule: COc1ccc(CO)cc1OC [veratryl alcohol]
- Km [6]: 1150 µM
- Ki (μM) [7]: 45,400 ± 7,000 μM
- Km [8]: 3970 µM
- Km [9]: 2940 µM

B1: recombinant Collariella virescens unspecific peroxygenase (enzyme)
chain: ALDFSKWKTRQPGEFRAPCPAMNSLANHGFIPRDGRNITVAMLVPVLQEVFHLSPELAQTISTLGLFTAQDPSKGVFTLDDLNRHNLFEHDASLSREDYYFHKDASTFRPEVFKKFMSHFKGKEYVTLEDAASARYAMVQESRKKNPTFTYTVQQRITSYGETIKYFRTIVEPATGKCPVAWIKILFEQERLPYNEGWRPPKAELSGFSMASDVLELALVTPEKLID
- stoichiometry N [10]: 2

B2: rDcaUPO (D. caldariorum UPO) (Daldinia caldariorum) (protein)
chain: MAPWKAPGPDDVRGPCPMLNTLANHGFLPHDGKNIDVNTTVNALSSALNLDDELSRDLHTFAVTTNPQPNATWFSLNHLSRHNVLEHDASLSRQDAYFGPPDVFNAAVFNETKAYWTGDIINFQMAANALTARLMTSNLTNPEFSMSQLGRGFGLGETVCYVTILGSKETRTVPKAFVEYLFENERLPYELGFKKMKSALTEDELTTMMGEIYSLQHLPESFTKPFAKRSEAPFEKRAEKRCPFH
notes: codon-optimised gene in pET28, poly-His tag (thrombin-cleavable, no effect on activity), soluble in E. coli C41; 29,609 Da calculated, 55 kDa by SEC (most probably dimer)
- Km (purified protein [11]): 332 ± 81 µM
- kcat (purified protein [11]): 22.1 ± 1.92 s⁻¹
- kcat/Km (purified protein [11]): 66800 ± 17300 M⁻¹ s⁻¹
- Km (purified protein [12]): 179 ± 36 µM
- kcat (purified protein [12]): 16.1 ± 1.19 s⁻¹
- kcat/Km (purified protein [12]): 90000 ± 19000 M⁻¹ s⁻¹
- Km (purified protein [13]): 160 ± 22 µM
- kcat (purified protein [13]): 2.39 ± 0.09 s⁻¹
- kcat/Km (purified protein [13]): 14800 ± 2100 M⁻¹ s⁻¹
- Km (purified protein [14]): 59 ± 6 µM
- kcat (purified protein [14]): 6.73 ± 0.14 s⁻¹
- kcat/Km (purified protein [14]): 114000 ± 10500 M⁻¹ s⁻¹
